The text below walks through data of paper doi:10.1101/2025.03.12.642377 (bioRxiv, 2025).

The test has as its target PACRG-mNeonGreen-6xHis (C. reinhardtii, UniProt B1B601 1-307). Briefly: pull-down.

B1: FAP20-mRuby3 (His-tag cleaved) (natural protein, C. reinhardtii, UniProt A8IU92 1-190, looked up)
chain: MFKNAFQSGFLSVLYSIGSKPLEIWDKQVSNGHIKRITDADIQSSVLEIMGQNVSTTYITCPADPNKTLGIKLPFLVLIIKNLNKYFSFEVQVLDDKNVRRRFRASNYQSTTRVKPFICTMPMRLDSGWNQIQFNLSDFTRRAYGTNYIETLRVQVHANCRIRRIYFSDRLYSEEELPAEFKLFLPIQKS
For B1, the binding result was “binds”.
